Results taken from the supplement of paper PMC10567573.

B1: WSB1 (parent)
chain: FSHDGLHVASLADDKMVRFWRIDE
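Further: lentivirally expressed fusions sorted by FACS into six bins by GFP to DsRed ratio, PSI derived from sequencing read proportions per bin multiplied by bin number.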

Variants of: B1
Test: protein stability index of a GFP-peptide fusion (GPS, HEK-293T) (PSI 1-6); higher = more stable
Conditions: c terminus: a fixed tail appended
FSHDGLHVASLADDKMYRFWRIDE [V17Y] showed a protein stability index of 1.91.
Work on FSHDGLHVASLADDKMMRFWRIDE [V17M] yielded a protein stability index of 1.79.
FSHDGLHVASLADDKMARFWRIDE [V17A] gave a protein stability index of 1.15.
Variant FSHDGLHVASLADDKMNRFWRIDE [V17N] has a protein stability index of 1.5.
Work on FSHDGLHVASLADDKMERFWRIDE [V17E] yielded a protein stability index of 2.75.
Variant FSHDGLHVASLADDKMKRFWRIDE [V17K] has a protein stability index of 1.85.
Variant FSHDGLHVASLADDKMGRFWRIDE [V17G] has a protein stability index of 1.03.
Variant FSHDGLHVASLADDKGVRFWRIDE [M16G] has a protein stability index of 1.83.
Work on FSHDGLHVASLADDKNVRFWRIDE [M16N] yielded a protein stability index of 1.36.
Work on FSHDGLHVASLADDKWVRFWRIDE [M16W] yielded a protein stability index of 1.57.
For FSHDGLHVASLADDKAVRFWRIDE [M16A], the protein stability index was 1.57.
With FSHDGLHVASLADDKIVRFWRIDE [M16I] the protein stability index was 1.4.
Work on FSHDGLHVASLADDKKVRFWRIDE [M16K] yielded a protein stability index of 2.23.
Variant FSHDGLHVASLADDKTVRFWRIDE [M16T] has a protein stability index of 1.16.
With FSHDGLHVASLADDKEVRFWRIDE [M16E] the protein stability index was 1.88.
Work on FSHDGLHVASLADDKHVRFWRIDE [M16H] yielded a protein stability index of 2.45.
Variant FSHDGLHVASLADDKRVRFWRIDE [M16R] has a protein stability index of 2.76.
Work on FSHDGLHVASLADDKCVRFWRIDE [M16C] yielded a protein stability index of 2.98.
With FSHDGLHVASLADDKYVRFWRIDE [M16Y] the protein stability index was 1.66.
In the case of FSHDGLHVASLADDKMVEFWRIDE [R18E], the protein stability index is reported as 1.92.
Variant FSHDGLHVASLADDKMVCFWRIDE [R18C] has a protein stability index of 1.43.
With FSHDGLHVASLADDKMVKFWRIDE [R18K] the protein stability index was 2.12.
FSHDGLHVASLADDKMVTFWRIDE [R18T] gave a protein stability index of 1.08.
For FSHDGLHVASLADDKMVSFWRIDE [R18S], the protein stability index was 1.31.
Variant FSHDGLHVASLADDKMVGFWRIDE [R18G] has a protein stability index of 1.26.
For FSHDGLHVASLADDKMVRIWRIDE [F19I], the protein stability index was 1.49.
For FSHDGLHVASLADDKMVRTWRIDE [F19T], the protein stability index was 3.13.
FSHDGLHVASLADDKMVRDWRIDE [F19D] showed a protein stability index of 3.37.
FSHDGLHVASLADDKMVRRWRIDE [F19R] showed a protein stability index of 3.11.
FSHDGLHVASLADDKMVRCWRIDE [F19C] gave a protein stability index of 2.32.
FSHDGLHVASLADDKMVRHWRIDE [F19H] gave a protein stability index of 2.66.
FSHDGLHVASLADDKMVRVWRIDE [F19V] gave a protein stability index of 2.15.
In the case of FSHDGLHVASLADDKMVRNWRIDE [F19N], the protein stability index is reported as 2.62.
With FSHDGLHVASLADDKMVRLWRIDE [F19L] the protein stability index was 3.32.
Work on FSSDGLHVASLADDKMVRFWRIDE [H3S] yielded a protein stability index of 3.07.
Variant FSGDGLHVASLADDKMVRFWRIDE [H3G] has a protein stability index of 2.95.
With FSCDGLHVASLADDKMVRFWRIDE [H3C] the protein stability index was 3.26.
FSPDGLHVASLADDKMVRFWRIDE [H3P] gave a protein stability index of 1.67.
With FSKDGLHVASLADDKMVRFWRIDE [H3K] the protein stability index was 2.08.
With FSYDGLHVASLADDKMVRFWRIDE [H3Y] the protein stability index was 1.19.
Work on FSDDGLHVASLADDKMVRFWRIDE [H3D] yielded a protein stability index of 2.2.
With FSHDGLHVASLGDDKMVRFWRIDE [A12G] the protein stability index was 3.04.
Variant FSHDGLHVASLKDDKMVRFWRIDE [A12K] has a protein stability index of 1.71.
Variant FSHDGLHVASLSDDKMVRFWRIDE [A12S] has a protein stability index of 1.35.
FSHDGLHVASLYDDKMVRFWRIDE [A12Y] showed a protein stability index of 1.66.
Variant FSHDGLHVASLCDDKMVRFWRIDE [A12C] has a protein stability index of 1.95.
In the case of FSHDGLHVASLPDDKMVRFWRIDE [A12P], the protein stability index is reported as 1.57.
In the case of FSHDGLHVASLHDDKMVRFWRIDE [A12H], the protein stability index is reported as 2.99.
FSHDGLHVASLIDDKMVRFWRIDE [A12I] gave a protein stability index of 1.93.
Variant FSHDGLHVAELADDKMVRFWRIDE [S10E] has a protein stability index of 2.02.
FSHDGLHVAFLADDKMVRFWRIDE [S10F] gave a protein stability index of 3.47.
FSHDGLHVANLADDKMVRFWRIDE [S10N] gave a protein stability index of 1.75.
In the case of FSHDGLHVAVLADDKMVRFWRIDE [S10V], the protein stability index is reported as 1.11.
With FSHDGLHVASLADDKMVRFARIDE [W20A] the protein stability index was 2.48.
Work on FSHDGLHVASLADDKMVRFGRIDE [W20G] yielded a protein stability index of 2.79.
Variant FSHDGLHVASLADDKMVRFVRIDE [W20V] has a protein stability index of 2.77.
For FSHDGLHVASLADDKMVRFMRIDE [W20M], the protein stability index was 2.67.
In the case of FSHDGLHVASLADDKMVRFLRIDE [W20L], the protein stability index is reported as 1.88.
FSHDGLHVASLADDKMVRFHRIDE [W20H] gave a protein stability index of 2.67.
In the case of FSHDGLHVASLADDKMVRFTRIDE [W20T], the protein stability index is reported as 2.85.
Variant FSHDGLHVASLADDKMVRFWRINE [D23N] has a protein stability index of 1.8.
For FSHDGLHVASLADDKMVRFWRIME [D23M], the protein stability index was 1.73.
In the case of FSHDGLHVASLADDKMVRFWRICE [D23C], the protein stability index is reported as 1.21.
Variant FSHDGLHVASLADDKMVRFWRIKE [D23K] has a protein stability index of 2.02.
Work on FSHDGLHVASLADDKMVRFWRITE [D23T] yielded a protein stability index of 1.33.
Variant FSHDGLHVASLADDKMVRFWRIEE [D23E] has a protein stability index of 1.58.
With FSHDGLHVASLADDKMVRFWRIGE [D23G] the protein stability index was 2.25.
FSHDGLHVWSLADDKMVRFWRIDE [A9W] gave a protein stability index of 2.44.
In the case of FSHDGLHVNSLADDKMVRFWRIDE [A9N], the protein stability index is reported as 2.09.
Work on FSHDGLHVISLADDKMVRFWRIDE [A9I] yielded a protein stability index of 2.66.
Variant FSHDGLHVPSLADDKMVRFWRIDE [A9P] has a protein stability index of 1.76.
Work on FSHDGLHVFSLADDKMVRFWRIDE [A9F] yielded a protein stability index of 5.19.
With FSHDGLAVASLADDKMVRFWRIDE [H7A] the protein stability index was 1.58.
In the case of FSHDGLVVASLADDKMVRFWRIDE [H7V], the protein stability index is reported as 2.42.
With FSHDGLCVASLADDKMVRFWRIDE [H7C] the protein stability index was 1.86.
FSHDGLLVASLADDKMVRFWRIDE [H7L] showed a protein stability index of 1.
For FSHDGLPVASLADDKMVRFWRIDE [H7P], the protein stability index was 2.09.
With FSHDGLMVASLADDKMVRFWRIDE [H7M] the protein stability index was 1.03.
In the case of FSHDGLHVASSADDKMVRFWRIDE [L11S], the protein stability index is reported as 1.05.
In the case of FSHDGLHVASEADDKMVRFWRIDE [L11E], the protein stability index is reported as 1.65.
FSHDGLHVASNADDKMVRFWRIDE [L11N] gave a protein stability index of 1.78.
Work on FSHDGLHVASKADDKMVRFWRIDE [L11K] yielded a protein stability index of 2.24.
FSHDGLHVASLADDIMVRFWRIDE [K15I] showed a protein stability index of 1.49.
FSHDGLHVASLADDCMVRFWRIDE [K15C] showed a protein stability index of 1.53.
Variant FSHDGLHVASLADDYMVRFWRIDE [K15Y] has a protein stability index of 1.34.
FSHDGLHVASLADDDMVRFWRIDE [K15D] gave a protein stability index of 2.33.
FSHDGLHVASLADDGMVRFWRIDE [K15G] gave a protein stability index of 1.69.
FSHDGLHVASLADDLMVRFWRIDE [K15L] showed a protein stability index of 2.49.
For FSHDGLHVASLADDSMVRFWRIDE [K15S], the protein stability index was 1.76.
Variant FSHDGLHVASLADDKMVRFWCIDE [R21C] has a protein stability index of 3.2.
Work on FSHDGLHVASLADDKMVRFWPIDE [R21P] yielded a protein stability index of 2.35.
In the case of FSHDGLHVASLADDKMVRFWWIDE [R21W], the protein stability index is reported as 2.12.
For FSHDGLHVASLADDKMVRFWYIDE [R21Y], the protein stability index was 3.45.
In the case of FSHDGLHVASLADDKMVRFWDIDE [R21D], the protein stability index is reported as 2.19.
